# According to the supplement of paper PMC10065799, “High-throughput profiling of sequence recognition by tyrosine kinases and SH2 domains using bacterial peptide display” (eLife, 2023):
# Experiments:
# [1] = target: c-Src SH2; experiment: SH2 binding enrichment of the phosphorylated peptide, bacterial display (enrichment ratio); higher = better substrate or ligand; peptides without Tyr show the background
# [2] = target: SHP2-C SH2; experiment: as above
# [3] = target: Grb2 SH2 (UniProt P62993); experiment: as above
# [4] = target: EPHB1 (UniProt P54762); experiment: phosphorylation enrichment, bacterial display (enrichment ratio); higher = better substrate or ligand; peptides without Tyr show the background
# [5] = target: FGFR1 (UniProt P11362); experiment: as above
# [6] = target: FGFR3 (UniProt P22607); experiment: as above
# [7] = tested on: c-Src; experiment: as above
# [8] = tested on: c-Abl (mouse); experiment: as above
# [9] = target: EPHB2 (UniProt P29323); experiment: as above
# [10] = target: Fyn (UniProt P06241); experiment: as above
# [11] = tested on: Fer (mouse); experiment: as above
# [12] = target: Jak2 (UniProt O60674); experiment: as above
# [13] = target: MERTK (UniProt Q12866); experiment: as above
# [14] = tested on: AncSZ; experiment: as above
# [15] = target: Hck (UniProt P08631); experiment: as above
# [16] = target: Fes (UniProt P07332); experiment: as above
# 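For SH2 binding enrichment of the phosphorylated peptide, bacterial display in this document: peptide library displayed on the E. coli surface as eCPX fusions, selected cells deep-sequenced, score is each peptide's frequency after selection divided by its frequency in the input.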
# 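For phosphorylation enrichment, bacterial display in this document: 11-residue human phosphosite peptides and single-mutation variants displayed on the E. coli surface, counted by deep sequencing, each peptide's frequency after selection divided by its frequency in the unselected input library; frequency after pTyr selection over input frequency; kinase dosed for 20-30% of maximal phosphorylation in three min.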
# Fyn, sequence (P06241 whole entry, looked up): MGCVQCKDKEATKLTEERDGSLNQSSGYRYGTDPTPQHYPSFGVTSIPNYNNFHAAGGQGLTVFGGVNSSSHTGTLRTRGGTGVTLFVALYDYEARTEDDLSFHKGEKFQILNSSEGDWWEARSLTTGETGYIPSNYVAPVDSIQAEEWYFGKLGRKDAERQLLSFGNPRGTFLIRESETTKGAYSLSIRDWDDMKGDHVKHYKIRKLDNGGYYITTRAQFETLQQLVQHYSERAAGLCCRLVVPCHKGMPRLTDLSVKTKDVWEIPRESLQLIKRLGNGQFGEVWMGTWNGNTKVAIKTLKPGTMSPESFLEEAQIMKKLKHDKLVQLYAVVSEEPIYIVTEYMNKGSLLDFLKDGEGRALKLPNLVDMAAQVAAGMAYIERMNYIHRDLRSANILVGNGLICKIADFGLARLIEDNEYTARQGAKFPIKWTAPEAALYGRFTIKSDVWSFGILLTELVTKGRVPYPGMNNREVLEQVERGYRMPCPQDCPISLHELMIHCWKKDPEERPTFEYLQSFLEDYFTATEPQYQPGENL
# Jak2, sequence (O60674 whole entry, looked up): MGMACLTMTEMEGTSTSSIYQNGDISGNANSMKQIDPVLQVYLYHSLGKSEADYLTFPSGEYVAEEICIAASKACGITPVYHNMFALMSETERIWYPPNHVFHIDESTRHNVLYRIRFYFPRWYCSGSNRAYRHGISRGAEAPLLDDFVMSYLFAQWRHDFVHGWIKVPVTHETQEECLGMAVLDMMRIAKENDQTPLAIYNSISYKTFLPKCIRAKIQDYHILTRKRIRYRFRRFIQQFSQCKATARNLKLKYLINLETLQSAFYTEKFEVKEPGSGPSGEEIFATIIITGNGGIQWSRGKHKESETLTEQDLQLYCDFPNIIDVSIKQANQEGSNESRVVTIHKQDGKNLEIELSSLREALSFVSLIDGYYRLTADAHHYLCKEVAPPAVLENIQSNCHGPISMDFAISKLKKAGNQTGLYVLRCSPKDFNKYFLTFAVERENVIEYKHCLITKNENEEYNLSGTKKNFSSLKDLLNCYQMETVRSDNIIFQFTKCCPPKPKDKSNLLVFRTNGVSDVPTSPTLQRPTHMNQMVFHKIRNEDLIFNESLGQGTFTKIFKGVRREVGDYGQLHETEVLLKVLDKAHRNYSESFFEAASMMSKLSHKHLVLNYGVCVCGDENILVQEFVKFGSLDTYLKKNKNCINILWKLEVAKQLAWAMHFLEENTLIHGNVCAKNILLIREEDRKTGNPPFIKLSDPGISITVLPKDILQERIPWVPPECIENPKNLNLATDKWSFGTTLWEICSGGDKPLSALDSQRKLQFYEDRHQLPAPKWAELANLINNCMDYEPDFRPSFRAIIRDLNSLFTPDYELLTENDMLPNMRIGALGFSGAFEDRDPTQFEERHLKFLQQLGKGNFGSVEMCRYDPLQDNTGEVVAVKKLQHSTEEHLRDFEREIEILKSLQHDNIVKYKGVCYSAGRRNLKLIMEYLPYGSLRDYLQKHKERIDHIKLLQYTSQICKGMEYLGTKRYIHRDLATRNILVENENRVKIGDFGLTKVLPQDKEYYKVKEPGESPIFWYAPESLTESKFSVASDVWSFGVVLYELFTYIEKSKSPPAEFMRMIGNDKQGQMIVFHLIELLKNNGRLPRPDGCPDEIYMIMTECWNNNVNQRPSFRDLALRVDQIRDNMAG
# Grb2 SH2, sequence (P62993 whole entry, looked up): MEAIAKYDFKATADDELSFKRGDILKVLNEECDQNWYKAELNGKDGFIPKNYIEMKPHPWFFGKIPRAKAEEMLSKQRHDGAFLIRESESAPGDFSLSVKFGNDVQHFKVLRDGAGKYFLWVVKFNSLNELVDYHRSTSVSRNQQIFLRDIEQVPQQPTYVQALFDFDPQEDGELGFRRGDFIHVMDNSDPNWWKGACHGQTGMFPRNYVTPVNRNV
# FGFR1, sequence (P11362 whole entry, looked up): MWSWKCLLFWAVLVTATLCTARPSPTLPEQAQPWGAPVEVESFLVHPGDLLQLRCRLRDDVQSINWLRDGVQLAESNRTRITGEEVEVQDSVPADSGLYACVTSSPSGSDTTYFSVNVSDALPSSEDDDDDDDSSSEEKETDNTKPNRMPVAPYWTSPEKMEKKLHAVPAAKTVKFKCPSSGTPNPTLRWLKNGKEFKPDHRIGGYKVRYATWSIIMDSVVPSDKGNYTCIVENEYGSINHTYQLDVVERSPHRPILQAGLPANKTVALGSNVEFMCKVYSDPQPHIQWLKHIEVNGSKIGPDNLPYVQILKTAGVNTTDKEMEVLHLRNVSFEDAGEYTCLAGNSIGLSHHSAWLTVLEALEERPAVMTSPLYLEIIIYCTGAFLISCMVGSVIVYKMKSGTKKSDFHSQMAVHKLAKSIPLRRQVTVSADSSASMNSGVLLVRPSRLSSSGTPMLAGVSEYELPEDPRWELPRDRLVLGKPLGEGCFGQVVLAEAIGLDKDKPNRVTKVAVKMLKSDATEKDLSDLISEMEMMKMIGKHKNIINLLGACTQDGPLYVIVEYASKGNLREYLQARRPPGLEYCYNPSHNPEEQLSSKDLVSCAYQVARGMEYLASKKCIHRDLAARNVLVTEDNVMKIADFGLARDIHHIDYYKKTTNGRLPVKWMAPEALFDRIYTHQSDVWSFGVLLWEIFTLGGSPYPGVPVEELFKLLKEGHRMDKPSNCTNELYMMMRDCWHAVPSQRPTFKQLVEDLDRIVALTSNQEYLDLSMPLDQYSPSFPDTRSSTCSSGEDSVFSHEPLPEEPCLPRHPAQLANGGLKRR
# EPHB2, sequence (P29323 whole entry, looked up): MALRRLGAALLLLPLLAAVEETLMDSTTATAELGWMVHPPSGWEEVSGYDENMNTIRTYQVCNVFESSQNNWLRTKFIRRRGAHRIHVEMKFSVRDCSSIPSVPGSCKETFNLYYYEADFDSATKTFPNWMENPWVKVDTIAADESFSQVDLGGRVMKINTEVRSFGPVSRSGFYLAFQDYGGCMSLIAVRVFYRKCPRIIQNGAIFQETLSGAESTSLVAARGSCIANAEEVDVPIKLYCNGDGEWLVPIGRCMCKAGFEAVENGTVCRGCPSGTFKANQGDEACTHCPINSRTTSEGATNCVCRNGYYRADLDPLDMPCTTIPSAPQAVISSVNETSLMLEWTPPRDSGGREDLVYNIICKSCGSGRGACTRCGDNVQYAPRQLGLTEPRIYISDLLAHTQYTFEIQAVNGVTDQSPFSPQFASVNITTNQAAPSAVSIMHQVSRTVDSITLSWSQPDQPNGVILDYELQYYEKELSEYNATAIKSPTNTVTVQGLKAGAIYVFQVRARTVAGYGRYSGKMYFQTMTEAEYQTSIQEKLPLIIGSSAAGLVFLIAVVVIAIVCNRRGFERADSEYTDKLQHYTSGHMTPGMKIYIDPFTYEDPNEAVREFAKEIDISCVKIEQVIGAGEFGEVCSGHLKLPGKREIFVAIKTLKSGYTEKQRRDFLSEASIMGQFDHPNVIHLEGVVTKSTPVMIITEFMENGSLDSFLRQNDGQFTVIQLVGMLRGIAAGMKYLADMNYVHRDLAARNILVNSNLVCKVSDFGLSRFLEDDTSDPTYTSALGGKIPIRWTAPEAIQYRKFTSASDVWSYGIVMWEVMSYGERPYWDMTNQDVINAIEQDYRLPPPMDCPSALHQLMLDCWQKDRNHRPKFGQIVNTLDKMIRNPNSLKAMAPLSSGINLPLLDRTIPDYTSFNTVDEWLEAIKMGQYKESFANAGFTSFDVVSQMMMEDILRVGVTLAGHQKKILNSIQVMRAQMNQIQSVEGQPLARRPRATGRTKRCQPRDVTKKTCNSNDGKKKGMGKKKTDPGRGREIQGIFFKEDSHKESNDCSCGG
# EPHB1, sequence (P54762 whole entry, looked up): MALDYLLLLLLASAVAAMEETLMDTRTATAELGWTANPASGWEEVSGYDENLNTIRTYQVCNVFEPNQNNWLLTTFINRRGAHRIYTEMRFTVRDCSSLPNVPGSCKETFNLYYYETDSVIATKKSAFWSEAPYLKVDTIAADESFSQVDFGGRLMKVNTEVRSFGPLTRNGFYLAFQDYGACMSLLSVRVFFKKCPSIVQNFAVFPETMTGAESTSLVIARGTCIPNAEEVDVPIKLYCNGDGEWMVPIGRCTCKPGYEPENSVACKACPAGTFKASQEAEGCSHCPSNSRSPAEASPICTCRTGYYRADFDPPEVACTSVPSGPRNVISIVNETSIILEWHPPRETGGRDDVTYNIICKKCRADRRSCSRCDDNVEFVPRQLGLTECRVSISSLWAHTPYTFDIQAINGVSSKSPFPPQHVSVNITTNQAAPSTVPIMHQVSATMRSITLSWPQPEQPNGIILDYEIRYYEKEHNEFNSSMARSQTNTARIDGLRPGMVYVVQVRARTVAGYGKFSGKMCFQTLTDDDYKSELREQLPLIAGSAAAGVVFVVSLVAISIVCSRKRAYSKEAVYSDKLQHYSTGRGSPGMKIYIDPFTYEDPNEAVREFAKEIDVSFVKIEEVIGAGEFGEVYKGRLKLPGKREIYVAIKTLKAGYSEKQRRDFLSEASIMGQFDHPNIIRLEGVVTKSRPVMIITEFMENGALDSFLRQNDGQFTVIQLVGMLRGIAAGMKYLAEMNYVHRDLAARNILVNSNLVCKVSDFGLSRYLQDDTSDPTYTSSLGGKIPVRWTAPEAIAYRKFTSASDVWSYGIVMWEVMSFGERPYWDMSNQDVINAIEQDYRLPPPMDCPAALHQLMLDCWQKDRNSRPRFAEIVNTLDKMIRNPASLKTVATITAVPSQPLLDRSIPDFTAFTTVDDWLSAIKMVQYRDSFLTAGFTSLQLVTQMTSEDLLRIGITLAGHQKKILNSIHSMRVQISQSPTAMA
Sequence,SH2 binding enrichment [1],SH2 binding enrichment [2],SH2 binding enrichment [3],phosphorylation enrichment [4],phosphorylation enrichment [5],phosphorylation enrichment [6],phosphorylation enrichment [7],phosphorylation enrichment [8],phosphorylation enrichment [9],phosphorylation enrichment [10],phosphorylation enrichment [11],phosphorylation enrichment [12],phosphorylation enrichment [13],phosphorylation enrichment [14],phosphorylation enrichment [15],phosphorylation enrichment [16]
RLKAKYPAATG [GLI3_Y933_A934P],1.48,1.25,1.48,0.708,0.716,0.941,0.818,1.14,0.697,0.755,0.604,0.905,0.639,0.713,0.787,0.969
RLLRGYNQSAY [HLA-C_Y137_D138N],0.825,1.09,1.11,0.538,0.386,0.499,0.267,0.36,0.454,0.41,0.321,0.307,0.275,0.44,0.507,0.412
RLNCIYFKDQT [RS1_Y165_W163C_YF],0.711,0.818,1.05,0.827,0.683,0.599,1.08,1.05,0.732,0.59,0.56,1.3,0.871,1.16,0.77,1.32
RLPINYTTRRI [LAMA2_Y2894_G2889R],0.471,0.636,0.76,0.433,0.743,0.839,0.626,0.638,0.519,0.35,0.289,0.547,0.663,0.873,0.534,0.602
RMLREYQELMS [KRT74_Y425],5.24,0.962,1.13,0.66,0.95,0.555,0.57,0.663,0.432,0.699,0.357,0.611,0.527,0.821,0.532,0.837
RMSQRYGDVLQ [CYP1A2_Y72],0.294,0.518,0.788,0.399,0.89,0.769,0.595,0.747,0.41,0.431,0.644,0.744,0.481,1.03,0.336,0.967
RMSQRYRDVLQ [CYP1A2_Y72_G73R],0.495,0.548,0.719,0.422,0.484,0.549,0.745,0.769,0.719,0.593,0.396,0.905,0.522,1.11,0.66,1.08
RNESFYDTFST [EFCAB3_Y372],0.542,0.913,0.826,17.3,0.852,0.915,10.5,2.23,21,16.4,13.2,0.891,15.6,1.07,14.3,1.46
RNNIEYVRDIG [MUSK_Y577],0.634,0.725,1.21,0.437,0.413,0.58,0.416,0.602,0.404,0.369,0.426,0.436,0.3,0.676,0.395,0.693
RPFRPYIIRGM [LRP5_Y1531_YF],0.482,0.625,0.735,0.633,1.03,0.88,0.647,0.532,0.709,0.611,0.456,0.748,0.781,1.14,0.655,1.2
RPGGRYPVARR [SHANK3_Y1569_S1566G],0.492,0.433,0.749,0.468,0.648,0.599,0.664,0.657,0.563,0.647,0.667,0.478,0.775,0.734,0.626,0.899
RQAQAYRGQRV [TSHR_Y706],0.385,0.665,0.691,0.564,1.23,1,1.36,1.25,0.99,1,0.909,1.62,0.831,1.82,0.839,1.51
RQQQDYWLMDV [ANPEP_Y600_I603M],0.634,0.815,0.896,7.32,18,13.1,0.509,0.587,3.72,0.537,1.03,1.26,3.29,1.8,0.487,1.01
RQSTLYSFFPK [MSH6_Y8],1.03,1.19,1.47,18.4,6.8,5.16,7.83,5.61,18.9,5.84,4.37,0.685,22.1,1.34,14.6,1.77
RRETPYGGGGG [FUS_Y526_R524T],0.477,0.54,0.685,0.568,0.957,1.07,0.628,0.487,0.62,0.718,0.438,0.551,0.721,0.769,0.604,0.68
RRIYSYRGHLW [VHL_Y112_H110Y],0.501,0.465,0.774,1.17,1.2,0.725,1.26,0.776,0.659,0.986,1.02,0.691,1.24,1.45,0.667,1.68
